Data taken from US20230288426A1, “REAGENT FOR MEASURING L-BIOTIN, METHOD FOR MEASURING SAMPLE CONTAINING L-BIOTIN, METHOD FOR DETERMINING NUMBER OF LABELS OF L-BIOTIN-LABELED SUBSTANCE, AND METHOD FOR PRODUCING SOLID PHASE ON WHICH OPTICALLY ISOMERIC BIOTIN-BINDING SITE IS IMMOBILIZED” (SYSMEX CORPORATION, priority 2022, published 2023).
Read-outs that look alike come from different tables or passages of the source.

Target: avidin (Gallus gallus, UniProt P02701)
Conditions: for A500 Measurement reagent 1: room temperature 5 minutes
Experimental: HABA (1 mg) and PBS (33 mL) were mixed to obtain a HABA solution. […] In the reagent, the concentration of avidin was 250 μg/mL, and the concentration of HABA was 30 μg/mL.
A reagent for measuring L-biotin (91.7 μL) was mixed with 0.1 M phosphate buffer (pH 7.5, 18.3 μL) or an L-biotin standard solution (18.3 μL), and the mixture was allowed to stand at room temperature for 5 minutes. Then, the absorbance at 500 nm (A500) of the reaction mixture was measured by spectrophotometer UV-2600 (Shimadzu Corporation). […] As a calibration curve, a straight line by a least squares method was used.
A sample containing the L-biotin-labeled BSA prepared in the above (3.2.1) was diluted 100-fold with 0.1 M phosphate buffer (pH 7.5). A reagent for measuring L-biotin (91.7 μL) and a sample containing diluted L-biotin-labeled BSA (18.3 μL) or a sample containing an L-biotin-labeled antibody (18.3 μL) were mixed, and the mixture was allowed to stand at room temperature for 5 minutes. Then, A500 of the reaction mixture was measured by UV-2600. The amount (μM) of L-biotin contained in each sample was determined from a calibration curve (regression equation) for the reagent for measuring L-biotin.

Chain of avidin (P02701 25-152): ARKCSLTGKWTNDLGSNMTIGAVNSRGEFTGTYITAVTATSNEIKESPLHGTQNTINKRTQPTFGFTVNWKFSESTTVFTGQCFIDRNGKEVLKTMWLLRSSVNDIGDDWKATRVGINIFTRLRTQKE

Compound	A500 Measurement reagent 1 (D-biotin standard solution 25 μM)	A500 Measurement reagent 1 (D-biotin standard solution 50 μM)	Biotin concentration (D-biotin in sample, Table 3) [µM]	D-Biotin (from calibration curve, BSA sample value multiplied by 100) [µM]	A500 (sample with Reagent 1 for measuring D-biotin, BSA sample diluted 100-fold)
O=C(O)CCCC[C@@H]1SC[C@@H]2NC(=O)N[C@@H]21 [D-Biotin, 3aS,4S,6aR-D-biotin]	0.194	0.062	–	–	–
D-Bio-BSA: BSA labeled with D-biotin AC5-NHS	–	–	1375.0	1375.0	0.257
